Patent publication US6420338B1, “Inhibition of the Src kinase family pathway as a method of treating HBV infection and hepatocellular carcinoma” (New York University Medical Center, priority 1997, dated 2002)

How the values were obtained:
CMV promoter = assay: CMV-βgal reporter control (β-galactosidase activity); format: cell-based; settings: co-expression with CMV-βgal
Source text: To assess whether HBx activation of a Src signaling cascade plays an essential role in transcriptional upregulation of the viral mRNAs, Chang cells were co-transfected with wtWHV and either RasDN or Csk plasmids, and the RNA visualized by Northern analysis (FIG. 7, lanes 2 and 3). […] To ensure that the decrease in synthesis of WHV RNA by Csk was not the unforseen consequence of Csk inhibition of the CMV promoter (which drives synthesis of the WHV pregenomic RNA), control experiments assessing the effect of Csk on a CMV-βgal reporter were carried out. […] However, the WHx-induced increase in mRNA abundance (˜3-5 fold) is much less then the HBx-induced increase in viral DNA synthesis (˜20-30 fold). […] The stimulation of Src signaling cascades by HBx must therefore promote WHV replication independent of the effect of WHx on viral transcription.

MAP kinase (ERK2) = MAP kinase (ERK2) immunoprecipitation MBP kinase assay in Chang cells expressing HBx; format: cell-based
WHV = WHV replication in Chang cells, Southern blot of intracellular core-associated viral DNA; format: cell-based, Woodchuck Hepatitis B Virus; settings: Chang cells co-transfected with wtWHV; 3 days post-transfection
Protocol: FIG. 7. WHx requires activation of Src family kinase for WHV replication. Chang cells were co-transfected with 20 μg PCWHV, wtWHV, wtWHV and RasDN (dominant-negative) (10 μg), or wtWHV and Csk (10 μg). Three days post-transfection viral core-associated DNA was isolated, purified, and subjected to Southern blot analysis using a full-length ^32P-labeled WHV genomic probe.
Chang cells were transfected with infectious WHV clones, (2×10 cm plates) were washed twice with PBS and lysed in 500 μl lysis buffer/10 cm plate (20 mM Tris HCl pH 7.5, 1 mM EDTA, 100 mM NaCl, 0.5% NP-40) for 10-15 minutes. Lysates were centrifuged at 12,000×g for 30 minutes, MgCl2 was adjusted to 10 mM, DNAseI (Boehringer Mannheim) was added to 20 U /ml and the lysates were incubated at 37° C. for 2 hours. Following DNAse I treatment, the lysates were centrifuged for 5 min at 12,000×g, layered onto a 20% sucrose cushion (300 μl of 20% sucrose in 20 mM Tris HCl pH 8.0, 150 mM NaCl) and centrifuged for 178,000×g for 3 hours at 20° C. […]
Chang cells were co-transfected with plasmids encoding either wtWHV, pCWHV, wtWHV and RasDN, or wtWHV and Csk, intracellular core-associated viral DNA was isolated 3 days post-transfection, and purified viral DNA analyzed by Southern blot hybridization as described above (FIG. 7).

AP-1 = AP-1 electrophoretic mobility shift assay (EMSA) on nuclear extracts of Chang cells expressing HBx; format: cell-based; settings: cotransfection of increasing amounts of plasmid
Protocol: FIGS. 3A and 3B. Transcriptional activation of AP-1 by HBx involves activation of Src kinases. Chang cells transfected with 8 μg plasmids pCMV-X or pCMV-Xo, with or without cotransfection of pCsk for 18 h, then serum starved for 18 h. (FIG. 3A) Cell extracts were prepared for AP-1 EMSA as described (Benn et al., 1996, supra) using a ^32P-labeled dsDNA oligonucleotide probe containing one AP-1 binding site. Reactions were carried out using 3 μg of nuclear extract, labeled oligonuleotide and 1 μg of poly(dI-dC) for 30 min at 23° C. Protein-DNA complexes were resolved by electrophoresis on 4% polyacrylamide gels and visualized by PhosphorImage analysis. As a positive control for AP-1 stimulation, cells were treated with 20 μM TPA for 30 min. (FIG. 3B) Cells were transfected as above but contained in addition 3 μg of plasmid pAP-1LUC, which encodes the luciferase reporter under the control of four AP-1 binding sites and a minimal TATA box promoter. Serum starved cells were harvested 18 h after transfection and the level of expression of the luciferase reporter assayed. Results are the average of three independent experiments.
Nuclear extracts were prepared according to a modified Dignam protocol (Su and Schneider, 1996). […]

B1: Csk: Csk (carboxyl-terminal Src kinase), a specific physiologic inhibitor of Src kinase, expressed from a CMV promoter plasmid (protein, UniProt P41240 2-450, looked up)
Tyrosine-protein kinase CSK: SAIQAAWPSGTECIAKYNFHGTAEQDLPFCKGDVLTIVAVTKDPNWYKAKNKVGREGIIPANYVQKREGVKAGTKLSLMPWFHGKITREQAERLLYPPETGLFLVRESTNYPGDYTLCVSCDGKVEHYRIMYHASKLSIDEEVYFENLMQLVEHYTSDADGLCTRLIKPKVMEGTVAAQDEFYRSGWALNMKELKLLQTIGKGEFGDVMLGDYRGNKVAVKCIKNDATAQAFLAEASVMTQLRHSNLVQLLGVIVEEKGGLYIVTEYMAKGSLVDYLRSRGRSVLGGDCLLKFSLDVCEAMEYLEGNNFVHRDLAARNVLVSEDNVAKVSDFGLTKEASSTQDTGKLPVKWTAPEALREKKFSTKSDVWSFGILLWEIYSFGRVPYPRIPLKDVVPRVEKGYKMDAPDGCPPAVYEVMKNCWHLDAAMRPSFLQLREQLEHIKTHELHL
effect on expression of βgal protein from CMV-βgal (β-galactosidase activity) (CMV promoter): did not significantly alter | effect on HBx activation of ERK2 (MAP kinase (ERK2); Chang cells co-expressing HBx, serum-starved in 0.5% CS for 24 hours): impaired | effect on HBx-induced activation of MAP kinase (MBP phosphorylation) (MAP kinase (ERK2); Chang cells co-transfected with HBx, serum-starved 20 hours, 2% serum restored for 2 hours): abolished | effect on activation of MAP kinase by insulin (MAP kinase (ERK2); Chang cells, overexpression, insulin stimulation): only slightly impaired | effect on WHV replication (viral DNA replicative intermediates) (WHV): completely abolished | effect on HBx induction of AP-1 DNA binding complexes (AP-1): suppressed
